Results on two substances are retold here after article PMC5405867.

Test [1] concerns the target murine USP18^IBB-1-USP7, His6-tagged (mouse) (UniProt Q9WTV6).
The next test has as its target ISG15 (Mus musculus) (UniProt Q64339). Nature of the test: microscale thermophoresis. The note with it: cited from earlier work. (In general: Microscale thermophoresis detects binding through changes in fluorescence in a small temperature gradient.)

Chain of ISG15 (Mus musculus) (Q64339 1-155): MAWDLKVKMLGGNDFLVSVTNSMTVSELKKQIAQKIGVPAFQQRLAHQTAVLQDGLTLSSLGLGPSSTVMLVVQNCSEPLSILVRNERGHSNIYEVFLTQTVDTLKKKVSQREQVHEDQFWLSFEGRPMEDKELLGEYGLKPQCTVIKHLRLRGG

As for “mouse ISG15 (residues 1-155, C76S) (from UniProt Q64339 1-155) (natural protein)”, in test [1], the catalytic activity towards ISG15-FP, percent of wild type (% of wt activity) turned out to be 0.5.
The Kd is the free concentration of one partner at which half of the binding sites on the other are occupied at equilibrium, for simple one-to-one binding. Consider USP18 (from UniProt Q9WTV6), for which, in the test with ISG15 (Mus musculus), the Kd is 1.3 µM.
